Measured values taken from the RNAGym collection of RNA variant scans (doi:10.7554/elife.80360).

B1: HDV Ribozyme (parent)
chain: GGCCGGCAUGGUCCCAGCCUCCUCGCUGGCGCCGGCUGGGCAACAUUCCGAGGGGACCGUCCCCUCGGUAAUGGCGAAUGGGACCCA

Variants of: B1
Experiment: self-cleavage, relative activity (ratio to wild type); higher = more cleavage; co-transcriptional

Variant	self-cleavage
GGCCGGCAUGGCCCCAGCCUCCUCGCUGGCGUCGGCUGGGCAACAUUCCGAGGGGACCGUCCCCUCGGUAAUGGCGAAUGGGACCCA [U12C C32U]	0.135
GGCCGGCAUGGUCCCAGCCUCCUCGCGGGCGCCGGCUGGGCAAAAUUCCGAGGGGACCGUCCCCUCGGUAAUGGCGAAUGGGACCCA [U27G C44A]	0.475
GGCCGGCAUGCUCCCAGCCUCCUCGCUGGCGCCGGCUGGGCAACAUUCCGAGGGGACCGUCCACUCGGUAAUGGCGAAUGGGACCCA [G11C C63A]	0.314
GGCCGGCAUGGUCUCAGCCUCCUCGCUGGCGCCGGCUGGGCAACAUUCCGAGGGGACCGUCCCCUCGGUAUUGGCGAAUGGGACCCA [C14U A71U]	1.1
GGCCGGCAUGGUCCCAGCCUCCUCGCUGGAGCAGGCUGGGCAACAUUCCGAGGGGACCGUCCCCUCGGUAAUGGCGAAUGGGACCCA [C30A C33A]	0.0615
GGCCGGCAUGGUCCCAGCCUCCUCGCUGGCGCCGGCUGGGCAACAUUCCAAGGGGACCGUCCCCUCGGUCAUGGCGAAUGGGACCCA [G50A A70C]	0.763
GGCCGGCAUGGUCCCAGCCUCCUCGCUGGCGCCGGCUGGGCAACAUUCCGACGGGACCGUCCCCUCUGUAAUGGCGAAUGGGACCCA [G52C G67U]	0.753
GGCCGGCAUGGUCCCAGCCUCCUCGCUGGCGCCGGCUGGGCAACAUUCCGAGGUGACCGUCCCCUCGGUAAUGGCGAAUGGGGCCCA [G54U A83G]	0.956
GGCCGGCAUGGUCCCAGCCUCCUCGCUGGCGCCGGCUGGGCAACAUUCCGAGGGGACCGUCCCCUCGGUAAUGGCGAAAGGGACCCA [U79A]	0.808
GGCCGGGAUGGUCCCAGCCUCCUCGGUGGCGCCGGCUGGGCAACAUUCCGAGGGGACCGUCCCCUCGGUAAUGGCGAAUGGGACCCA [C7G C26G]	0.369
GGCCGGCAUGGUCCCAGCCUCCUCGCUGGCGCCGGUUGGGCAACAUUCAGAGGGGACCGUCCCCUCGGUAAUGGCGAAUGGGACCCA [C36U C49A]	0.795
GGGCGGCAUGGUCCCAGCCUCCUCGCUGGCGCCGGCUGGGCAACAUUCCGAGGGGACCGUCCCCUCGGUAAUGGCGAUUGGGACCCA [C3G A78U]	0.125
GGCCGGCAUGGUCCCUGCCUCCUCGCUGGCGCCGGCUGGGCAACAUUCCGAGGGGACCGUCCCCUAGGUAAUGGCGAAUGGGACCCA [A16U C66A]	0.831
GCCCGGCAUGGUCCCAGCCUCCUCGCUGGCGCCGGCUGGGCAACAUCCCGAGGGGACCGUCCCCUCGGUAAUGGCGAAUGGGACCCA [G2C U47C]	0.102
GGCCGGCAUGGUCCCAGCCUCCUCGCUGGCUCCGGCUGGGCAACAUUCCGAGGGGACCGUCCCCUCGGUAAUGGCGAAUGGGACUCA [G31U C85U]	0.441
GGCCGGCAUGGUCCCACCCUCCUCGCUGGCGCCGGCUGGGCAACAUUCCGAGGGGACCGUCGCCUCGGUAAUGGCGAAUGGGACCCA [G17C C62G]	0.0723
GGCCGGCCUGGCCCCAGCCUCCUCGCUGGCGCCGGCUGGGCAACAUUCCGAGGGGACCGUCCCCUCGGUAAUGGCGAAUGGGACCCA [A8C U12C]	0.208
GGCCGGCAUGGUCCCAGCCUCCUCGCUGGCGCCGGCUGGGCAACAUUCCGAGGGGACCGUCCCCGCGGUACUGGCGAAUGGGACCCA [U65G A71C]	0.755
GGCCGGCAUGGUCCCAGCCUCCUCGGUGGCGCCGGCUGGGCACCAUUCCGAGGGGACCGUCCCCUCGGUAAUGGCGAAUGGGACCCA [C26G A43C]	0.437
GGCCGGCAUGGUCCCAGCCUCCUCGCUGGCGCCGGCUGGGCACCAUUCCGAGGGGACCGUCCCCUCAGUAAUGGCGAAUGGGACCCA [A43C G67A]	0.322
GGCCGGCAUGGUCCCAGCCUCCUCGCUGGCGCCCGCUGGGCAACAUUCCGAGGGGACCGUCCCCUCGGUAAUCGCGAAUGGGACCCA [G34C G73C]	0.17
GGUCGGCAUGGUCCCAGCCUCCUCGCUGGCGCCGGCUGGGCAACAUUCCGAGGCGACCGUCCCCUCGGUAAUGGCGAAUGGGACCCA [C3U G54C]	0.636

Variant	self-cleavage
GGCCGGCAUGGUCCCAGCCUCCUCGCUGGCGCCGGCUGGGCAAUAUUCCGAGGGGACCGUCCCCUCGGUAAUGGCGAAAGGGACCCA [C44U U79A]	0.688
GGCCGGCAUGGUCCCAUCCUCCUCGCUGGCGCCGGCUGGGCAACAUUCCGAGGGGACCGGCCCCUCGGUAAUGGCGAAUGGGACCCA [G17U U60G]	0.522
GGCCGGCAUGGUCCCAGCCUCCUAGCUGGCGCCGGCUGGGCAACAUUCCGAGGGGACCGUCCCCUCGGUAAUUGCGAAUGGGACCCA [C24A G73U]	0.288
GGCCGGCAUGGUCCCAGCCUCCUCGCUGGCGACGGCUGGGCAACAUUCCGAGGGGACCGUCCCCUCGGUAAUGGCGAGUGGGACCCA [C32A A78G]	0.113
GGCCGGCAUGGUCCCAGCCUCCUCGCUGGCGCCGGCUGGGCAACAUUCCGAGGGGACCGGCCCCUCGGUAAUGGCGAAUGGCACCCA [U60G G82C]	0.133
GGCCGGCAUGGUCCCAGCCUCCUCCCUGGCGCCGGCUGGGUAACAUUCCGAGGGGACCGUCCCCUCGGUAAUGGCGAAUGGGACCCA [G25C C41U]	0.0707
GGCCGGCAUGGUCCCAGCCUCCUCGCUGGCGCCGGCUGGGCAACAUUCCGAUGGGACCGUCCCCUCGGUAAUCGCGAAUGGGACCCA [G52U G73C]	0.155
GGCCGGCAUGGUCCCAACCUCCUCGCUGGCGCCGGCUGGGCAACAUUCCGAGGGGACCGUUCCCUCGGUAAUGGCGAAUGGGACCCA [G17A C61U]	0.904
GGCCGGCAUGGUCCCAGCCUCCUCGCUGGCGCCGGCUGGGCAACAAUCCGAGGGGACCGUCCCCUCGGUAAUGGCGAAAGGGACCCA [U46A U79A]	0.504
GGCCGGCAUGGUCCCAGCCUCCUCGCUGGCGCCGGGUGGGCAACAUUCCGAGGGGACCGUCCCCUCGGUAAUGGCGAAUGGGACCAA [C36G C86A]	0.181
GGCCGGCAUGGUCCCAGCCUCCUCGCUGGCGCCGCCUGGGCAACAUUCCGAGGGGACCGUCCCCUCGGUAAUAGCGAAUGGGACCCA [G35C G73A]	0.0723
GGCCGGCAUGGUCCCAGCCUCCUCGCUGGCGCCGGCUGGGCAACAUUCCGAGGGGUCCGACCCCUCGGUAAUGGCGAAUGGGACCCA [A56U U60A]	1.13
GGCCGGCAUGGUCCCAGCCUCCUCGCUGGCGCCGGCUGGGCAACAUUCCGAGGGGACCGUCCCCUCGGUAAUAGCGAAUGGGACACA [G73A C85A]	0.882
GGCCGGCAUGGUCCCAGCCUGCUCGGUGGCGCCGGCUGGGCAACAUUCCGAGGGGACCGUCCCCUCGGUAAUGGCGAAUGGGACCCA [C21G C26G]	0.0723
GGCCGGCAUGGUCGCAGCCUCCUCGCUGGCGCCGGCUGGGCAACAUUCCGAGGGGACCCUCCCCUCGGUAAUGGCGAAUGGGACCCA [C14G G59C]	0.969
GGCCGGCAUGGUCCCAGCCUCCUCGCUGGCGCUGGCUGGGCAACAUUCCGAGGGGACCGUCCCCUCGGUAAUGGCGAAUGCGACCCA [C33U G81C]	0.119
GGCCGGCAUGUUCCCAGCCUCCUCGCUGGCGCGGGCUGGGCAACAUUCCGAGGGGACCGUCCCCUCGGUAAUGGCGAAUGGGACCCA [G11U C33G]	0.0594
GGCCGGCAUGGUCCCAGCGUCCUCGCUGGCGCCGGCUGGGCAACAUUCCGAGGGGACCGUCCCCUCGGUAAUGGCGAAUGGGACCCG [C19G A87G]	0.16
GGCCGGCAUGGUCCCAGCCUCCUCCCUGGCGCCGGCUGGGCAACAUUCCGAGGGGACCGUCCCCUCGGUAAUGGCGAAUCGGACCCA [G25C G80C]	0.17
GGCCGGCAUGGUCCCAGCUUCCUCGCUUGCGCCGGCUGGGCAACAUUCCGAGGGGACCGUCCCCUCGGUAAUGGCGAAUGGGACCCA [C19U G28U]	0.172
GGCCGGCAUGGUCCCAGCCUCCUCGCUGGCGCCGGCUGGACAACAUUCCGAGGGGACCGUCCCCUCGGUAAUGGCGAAAGGGACCCA [G40A U79A]	0.513
GGUCGGCAUGGUCCCAGCCUCGUCGCUGGCGCCGGCUGGGCAACAUUCCGAGGGGACCGUCCCCUCGGUAAUGGCGAAUGGGACCCA [C3U C22G]	0.0193

Variant	self-cleavage
GGCCGGUAUGGUCCCAGCCUCCUCGCUGGCGCCGGCUGGCCAACAUUCCGAGGGGACCGUCCCCUCGGUAAUGGCGAAUGGGACCCA [C7U G40C]	0.166
GGCCGGCAUGGUCCCAGCGUCCUCGCUGGCGCCGGCUGGGCAACAUUCCGAGGGGACCGUCCCCUCUGUAAUGGCGAAUGGGACCCA [C19G G67U]	0.058
GGCCGGCAUGGUCCCAGCAUCCUCGCUGGCGCCGGCUGGGCAACAUUCCGAGGGGACCGUGCCCUCGGUAAUGGCGAAUGGGACCCA [C19A C61G]	0.095
GGCCGGCAUGGUCCCAGCCUCCUCGCUGGCGCCGGCUGGGCAACAUUCGGAGGGGACCGUCCCCUCGGUAAUGGCGAAUGGGACCUA [C49G C86U]	0.831
GGCCGGCAUGGUCCCAGCCUCCUCGCUGGCGCCGGCUGGGCAACAUACCGAGGGGACCGUCCCCUCGGUAAUGGCGAAUGGGACCCU [U47A A87U]	1.03
GGCCGGCAUGGUCCCAGCCUCCCCGCUGGCGCCGGCUGGGCAACAUUCCGAGGGGACCGUCCCCUCGGUAUUGGCGAAUGGGACCCA [U23C A71U]	0.808
GGCCGGCAUGGUCCCAGCCUCCUCGCUGGCGCCCGCUGGGCAACAUUCCGAGGGGACCGUCCCCUCGGUAAUGGAGAAUGGGACCCA [G34C C75A]	0.131
GGCCGGCAUGGUCCCAGCCUCCUCGCUGGCGCCGGCUGGGCGACAUUCCGAGGGGACGGUCCCCUCGGUAAUGGCGAAUGGGACCCA [A42G C58G]	0.554
GGCCGGCAUGGUCACAGCCUCCUCGCUGGCGCCGGCUGGGCAACAUUCCGAGGGGACCGUCCCCUCGGUAAUGGCGAAUGCGACCCA [C14A G81C]	1.22
GGCCGGCAUGGCCCCAGCCUCCUCGCUGGCGCCGGCUGGGCAACAUUCCGAGGGGACCGUCCCCUCGGUAAUGGCGAUUGGGACCCA [U12C A78U]	0
GGCUGGCAUGGUCCCAGCCUCCUCGCUGGCGCCGGCUGGGCAACAUUCCGAGGGGACCGUCUCCUCGGUAAUGGCGAAUGGGACCCA [C4U C62U]	0.656
GUCCGGCAUGGUCCCAGCCUCCUCGCUGGCGCCGGCUGGGCAACAUUCCGAGGGGACCGUCACCUCGGUAAUGGCGAAUGGGACCCA [G2U C62A]	0.0166
GGCCGGCAUGGUCCCAGUCUCCUCGCUGGCGCCGGCUGGGCAACAUUCCGAGGGGACCGUCCCCUCGGUAGUGGCGAAUGGGACCCA [C18U A71G]	0.504
GGCCGGCAUGGUCCCAGCCUCCUCGCUGGCGCCGGCUGGGCAACAUUCCGCAGGGACCGUCCCCUCGGUAAUGGCGAAUGGGACCCA [A51C G52A]	1.04
GGCCGGCAUGGUCCCAGCCUCCUCGCUGGCGCCGGCUGGGCAACAUUCCGAGGGGACCGUCCCCUCGGUAAUGGCGAAUGAGACCUA [G81A C86U]	0.546
GGCCGGCAUGGUCCCAGCCUCCCCGCUGGCGCCGGCUGGGCAAUAUUCCGAGGGGACCGUCCCCUCGGUAAUGGCGAAUGGGACCCA [U23C C44U]	0.554
GGCCGGCAUUGUCCCAGCCUCCUCGCUGGCGCCGGCUGGGCAACAUUCCGAGGGGACCGACCCCUCGGUAAUGGCGAAUGGGACCCA [G10U U60A]	0.635
GGCCGGCAUGGUCUCAGCCUCCUCGCUGGCGCCGGCUGGGCAACAUUCCGAGGGGACCGUCCCCUCGAUAAUGGCGAAUGGGACCCA [C14U G68A]	0.95
GGCCGGCAUGGUCCCAGCCUCCUCGCUGGCGCCGGCUGGGCAACAUUCGGAGGGGACCGUUCCCUCGGUAAUGGCGAAUGGGACCCA [C49G C61U]	0.432
GGCCGGCAUGGUUCCAGCCUCCUCGCUGGCGCCGGCUGGGCAAGAUUCCGAGGGGACCGUCCCCUCGGUAAUGGCGAAUGGGACCCA [C13U C44G]	0.332
